These results are taken from article PMC3821029.

By Km is commonly meant the substrate concentration at which the rate is half of its maximum.

Substrate in the data set: CO[C@H]1O[C@H](COS(=O)(=O)O)[C@@H](O[C@@H]2O[C@@H](C(=O)O)[C@@H](O[C@H]3O[C@H](COS(=O)(=O)O)[C@@H](O[C@@H]4O[C@H](C(=O)O)[C@@H](O[C@H]5O[C@H](COS(=O)(=O)O)[C@@H](O)[C@H](O)[C@H]5NS(=O)(=O)O)[C@H](O)[C@H]4O)[C@H](OS(=O)(=O)O)[C@H]3NS(=O)(=O)O)[C@H](O)[C@H]2OS(=O)(=O)O)[C@H](O)[C@H]1NS(=O)(=O)O
Briefly: purified protein, by the assay type. The conditions noted are these: pH 5.0.

B1: Recombinant human heparanase (Homo sapiens) (protein)
chain 1: KKFKNSTYSRSSVDVLYTFANCSGLDLIFGLNALLRTADLQWNSSNAQLLLDYCSSKGYNISWELGNEPNSFLKKADIFINGSQLGEDFIQLHKLLRKSTFKNAKLYGPDVGQPRRKTAKMLKSFLKAGGEVIDSVTWHHYYLNGRTATKEDFLNPDVLDIFISSVQKVFQVVESTRPGKKVWLGETSSAYGGGAPLLSDTFAAGFMWLDKLGLSARMGIEVVMRQVFFGAGNYHLVDENFDPLPDYWLSLLFKKLVGTKVLMASVQGSKRRKLRVYLHCTNTDNPRYKEGDLTLYAINLHNVTKYLRLPYPFSNKQVDKYLLRPLGPHGLLSKSVQLNGLTLKMVDDQTLPPLMEKPLRPGSSLGLPAFSYSFFVIRNAKVAACI
chain 2: QDVVDLDFFTQEPLHLVSPSFLSVTIDANLATDPRFLILLGSPKLRTLARGLSPAYLRFGGTKTDFLIFDPKKE
With B1, the Km came out at 3.6 ± 0.5 µM.
